T1: ElpQ_(181–343)
T1 chain: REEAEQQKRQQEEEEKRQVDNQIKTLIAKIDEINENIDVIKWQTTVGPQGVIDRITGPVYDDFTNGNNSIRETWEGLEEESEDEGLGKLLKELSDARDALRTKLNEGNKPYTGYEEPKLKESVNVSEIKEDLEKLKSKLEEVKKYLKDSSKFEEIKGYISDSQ

B1: activated C1s–CCP1–CCP2–SP, P09871 E326A; D358A; K575A; R576A; R581A; K583A (protein)
chain: EPTMYGEILSPNYPQAYPSEVEKSWDIEVPEGYGIHLYFTHLDIELSENCAYDSVQIISGDTEEGRLCGQRSSNNPHSPIVEEFQVPYNKLQVIFKSDFSNEERFTGFAAYYVATDINECTDFVDVPCSHFCNNFIGGYFCSCPPEYFLHDDMKNCGVNCSGDVFTALIGEIASPNYPKPYPENSRCEYQIRLEKGFQVVVTLRREDFDVEAADSAGNCLDSLVFVAGDRQFGPYCGHGFPGPLNIETKSNALDIIFQTDLTGQKKGWKLRYHGDPMPCPKEDTPNSVWEPAKAKYVFRDVVQITCLDGFAVVEGRVGATSFYSTCQSNGKWSNSKLKCQPVACGIPESIENGKVEDPESTLFGSVIRYTCEEPYYYMENGGGGEYHCAGNGSWVNEVLGPELPKCVPVCGVPREPFEEKQRIIGGSDADIKNFPWQVFFDNPWAGGALINEYWVLTAAHVVEGNREPTMYVGSTSVQTSRLAKSKMLTPEHVFIHPGWKLLEVPEGRTNFDNDIALVRLKDPVKMGPTVSPICLPGTSSDYNLMDGDLGLISGWGRTEAADRAVALAAARLPVAPLRKCKEVKVEKPTADAEAYVFTPNMICAGGEKGMDSCKGDSGGAFAVQDPNDKTKFYAAGLVSWGPQCGTYGLYTRVKNYVDWIMKTMQENSTPRED
B2: activated C1s–CCP1–CCP2–SP, P09871 K575A; R576A; R581A; K583A (protein)
chain: EPTMYGEILSPNYPQAYPSEVEKSWDIEVPEGYGIHLYFTHLDIELSENCAYDSVQIISGDTEEGRLCGQRSSNNPHSPIVEEFQVPYNKLQVIFKSDFSNEERFTGFAAYYVATDINECTDFVDVPCSHFCNNFIGGYFCSCPPEYFLHDDMKNCGVNCSGDVFTALIGEIASPNYPKPYPENSRCEYQIRLEKGFQVVVTLRREDFDVEAADSAGNCLDSLVFVAGDRQFGPYCGHGFPGPLNIETKSNALDIIFQTDLTGQKKGWKLRYHGDPMPCPKEDTPNSVWEPAKAKYVFRDVVQITCLDGFEVVEGRVGATSFYSTCQSNGKWSNSKLKCQPVDCGIPESIENGKVEDPESTLFGSVIRYTCEEPYYYMENGGGGEYHCAGNGSWVNEVLGPELPKCVPVCGVPREPFEEKQRIIGGSDADIKNFPWQVFFDNPWAGGALINEYWVLTAAHVVEGNREPTMYVGSTSVQTSRLAKSKMLTPEHVFIHPGWKLLEVPEGRTNFDNDIALVRLKDPVKMGPTVSPICLPGTSSDYNLMDGDLGLISGWGRTEAADRAVALAAARLPVAPLRKCKEVKVEKPTADAEAYVFTPNMICAGGEKGMDSCKGDSGGAFAVQDPNDKTKFYAAGLVSWGPQCGTYGLYTRVKNYVDWIMKTMQENSTPRED

Target: T1, ElpQ_(181–343)
Assay: SPR
Details: chain shown with the change; steady-state response at the highest analyte concentration plotted (about 5e-7 M on the x axis); ElpQ181-343 immobilized, C1s construct injected; parent: est. 140; read off a plot

Row | Binder | response
1 | B1 | 0 RU
2 | B2 | 8 RU

Reference: article PMC9637899
